Three substances from US20050009149A1 can be followed below.

Where “and” joins values, the source holds several entries; their conditions need not be identical. Equal values may be shown once.

The target in one assay is zTNF4 (UniProt Q9Y275). The assay is described as follows: cell-based or functional assay.
Assay [1] addresses human TACI on Jurkat TACI KZ142 Luciferase cells (human) (UniProt O14836). The assay is described as follows: cell-based or functional assay.
Sequence of UniProt O14836 (O14836 whole entry): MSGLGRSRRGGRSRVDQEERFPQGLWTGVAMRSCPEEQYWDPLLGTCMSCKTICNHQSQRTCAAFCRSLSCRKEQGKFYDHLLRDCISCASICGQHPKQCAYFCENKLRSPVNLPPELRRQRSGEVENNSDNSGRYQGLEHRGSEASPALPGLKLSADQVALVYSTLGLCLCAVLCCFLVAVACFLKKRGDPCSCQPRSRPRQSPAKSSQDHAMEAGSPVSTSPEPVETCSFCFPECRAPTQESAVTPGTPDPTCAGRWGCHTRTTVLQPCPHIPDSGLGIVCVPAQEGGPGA

In the assay with zTNF4, “TACI-NC1 (fusion of an extracellular domain of TACI and the NC1 domain of human collagen X, with Glu-Glu tag)” had an EC50, inhibition of zTNF4-stimulated human B-cell proliferation (3H-thymidine incorporation) of 57 pM; a fold effectiveness against TACI-Fc5, inhibition of zTNF4-induced B-cell proliferation of 19 times; a fold efficiency at inhibiting zTNF4-stimulated proliferation of human B-cells of 10 fold.

Substance “TACI-Fc fusion protein (from UniProt O14836 1-165)” gave an EC50, inhibition of zTNF4-stimulated human B-cell proliferation (3H-thymidine incorporation) with zTNF4 of 1100 pM.

Take “zTNF4 (from UniProt Q9Y275 134-285) (ligand)”: in assay [1], the luciferase responsiveness of Jurkat TACI KZ142 Luciferase cells is 18 fold and 10 fold.
